Experimental data taken from patent publication US20260184782A1 (TWIST BIOSCIENCE, published 2026).
Positions count from the first letter of the chain named.

T1: recombinant human TIGIT (human, UniProt Q495A1 22-141, limits assumed)
T1 construct: recombinant human TIGIT used in Carterra SPR; also called hTIGIT
T1 sequence (looked up): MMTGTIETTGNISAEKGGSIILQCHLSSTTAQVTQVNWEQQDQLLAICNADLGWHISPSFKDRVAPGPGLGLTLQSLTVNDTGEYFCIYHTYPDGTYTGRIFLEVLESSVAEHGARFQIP

B1: TIGIT-SC14 (Fc fusion)
VHH: EVQLVESGGGLVQPGGSLRLSCAASGSISSIHAMGWFRQAPGKEREFVATISRSGVGTFYADSVKGRFTISADNSKNTAYLQMNSLKPEDTAVYYCASSYSSSSGLGDIWGQGTLVTVSS
notes: VHH-Fc fusion in assay
B2: TIGIT-SC3 (Fc fusion)
VHH: EVQLVESGGGLVQPGGSLRLSCAASGTFQRINAMGWFRQAPGKEREFVSTINWSGSNTYYADSVKGRFTISADNSKNTAYLQMNSLKPEDTAVYYCASSYSSSSGLGDIWGQGTLVTVSS
notes: VHH-Fc fusion in assay
B3: TIGIT-SC77 (Fc fusion)
VHH: EVQLVESGGGLVQPGGSLRLSCAASGGAFSTVAMGWFRQAPGKEREAVASIWRSGDSTYYADSVKGRFTISADNSKNTAYLQMNSLKPEDTAVYYCASSYSSSSGLGDIWGQGTLVTVSS
notes: VHH-Fc fusion in assay
B4: TIGIT-SC34 (Fc fusion)
VHH: EVQLVESGGGLVQPGGSLRLSCAASGTTFSPYTMGWFRQAPGKEREFVASINSGSRTNYADSVKGRFTISADNSKNTAYLQMNSLKPEDTAVYYCVRSEIGWGQGTLVTVSS
notes: VHH-Fc fusion in assay
B5: TIGIT-SC58 (Fc fusion)
VHH: EVQLVESGGGLVQPGGSLRLSCAASGFTLGYYVMGWFRQAPGKEREFVATINWSGTLTSYADSVKGRFTISADNSKNTAYLQMNSLKPEDTAVYYCARWVGPKYYFDYWGQGTLVTVSS
notes: VHH-Fc fusion in assay
B6: TIGIT-SC39 (Fc fusion)
VHH: EVQLVESGGGLVQPGGSLRLSCAASGRTVSSHAMGWFRQAPGKEREFVAAITSSGSTYYADSVKGRFTISADNSKNTAYLQMNSLKPEDTAVYYCASSYSSSSGLGDIWGQGTLVTVSS
notes: VHH-Fc fusion in assay
B7: TIGIT-SC63 (Fc fusion)
VHH: EVQLVESGGGLVQPGGSLRLSCAASGRAIGSYGMGWFRQAPGKEREFVATISVSGVYTYYADSVKGRFTISADNSKNTAYLQMNSLKPEDTAVYYCARATPGGVVPWGQGTLVTVSS
notes: VHH-Fc fusion in assay
B8: TIGIT-SC47 (Fc fusion)
VHH: EVQLVESGGGLVQPGGSLRLSCAASGRALNMYVMGWFRQAPGKERELVAAIDWSGGSALYADSVKGRFTISADNSKNTAYLQMNSLKPEDTAVYYCASGDGYSMDYFDPWGQGTLVTVSS
notes: VHH-Fc fusion in assay
B9: TIGIT-SC170 (Fc fusion)
VHH: EVQLVESGGGLVQPGGSLRLSCAASGHTFSPSWMGWFRQAPGKEREWVASVLRGGYTWYADSVKGRFTISADNSKNTAYLQMNSLKPEDTAVYYCTTELRWELQQPDYWGQGTLVTVSS
notes: VHH-Fc fusion in assay
B10: TIGIT-SC108 (Fc fusion)
VHH: EVQLVESGGGLVQPGGSLRLSCAASGNTFSGGFMGWFRQAPGKEREWVASVLRGGYTWYADSVKGRFTISADNSKNTAYLQMNSLKPEDTAVYYCANGGRVWWAFDYWGQGTLVTVSS
notes: VHH-Fc fusion in assay
B11: TIGIT-SC10 (Fc fusion)
VHH: B10 VHH with N97S, G98D, G99P, R100W, V101G, W102T, W103R, A104Y, Y107H
notes: VHH-Fc fusion in assay
B12: TIGIT-SC21 (Fc fusion)
VHH: B10 VHH with N97R, R100A, V101G, W102S, W103D, A104W, D106G, Y107P
notes: VHH-Fc fusion in assay
B13: TIGIT-SC61 (Fc fusion)
VHH: B10 VHH with A96T, N97R, G99D, R100T, V101A, W102M, W103A, A104T
notes: VHH-Fc fusion in assay
B14: TIGIT-SC175 (Fc fusion)
VHH: EVQLVESGGGLVQPGGSLRLSCAASGNTFSGGFMGWFRQAPGKEREWVASVLRGGYTWYADSVKGRFTISADNSKNTAYLQMNSLKPEDTAVYYCTTDALRFLEWPWWGQGTLVTVSS
notes: VHH-Fc fusion in assay
B15: TIGIT-SC197 (Fc fusion)
VHH: EVQLVESGGGLVQPGGSLRLSCAASGFTFDRSWMGWFRQAPGKEREWVASVLRGGYTWYADSVKGRFTISADNSKNTAYLQMNSLKPEDTAVYYCAREGRTAGWFDPWGQGTLVTVSS
notes: VHH-Fc fusion in assay
B16: TIGIT-SC97 (Fc fusion)
VHH: EVQLVESGGGLVQPGGSLRLSCAASGTAASFNPMGWFRQAPGKEREFVAAISWSGGSTNYADSVKGRFTISADNSKNTAYLQMNSLKPEDTAVYYCVTYSAYDFRNAWGQGTLVTVSS
notes: VHH-Fc fusion in assay
B17: TIGIT-SC95 (Fc fusion)
VHH: EVQLVESGGGLVQPGGSLRLSCAASGPTFSTNVMGWFRQAPGKEREFVSSIHWGGSSTVYADSVKGRFTISADNSKNTAYLQMNSLKPEDTAVYYCVTYSAYDFRNAWGQGTLVTVSS
notes: VHH-Fc fusion in assay
B18: TIGIT-SC1 (Fc fusion)
VHH: EVQLVESGGGLVQPGGSLRLSCAASGFTLNDYAMGWFRQAPGKERELVAWIARYDGSTLYADSVKGRFTISADNSKNTAYLQMNSLKPEDTAVYYCARVDWALNAAPFDYWGQGTLVTVSS
notes: VHH-Fc fusion in assay
B19: TIGIT-SC78 (Fc fusion)
VHH: B18 VHH with F27L
notes: VHH-Fc fusion in assay
B20: TIGIT-SC38 (Fc fusion)
VHH: EVQLVESGGGLVQPGGSLRLSCAASGFTFSEYPMGWFRQAPGKEREFVAVVNWNGDSTYYADSVKGRFTISADNSKNTAYLQMNSLKPEDTAVYYCARGSDWYRYWGQGTLVTVSS
notes: VHH-Fc fusion in assay
B21: TIGIT-SC107 (Fc fusion)
VHH: EVQLVESGGGLVQPGGSLRLSCAASGFAFSSDWMGWFRQAPGKEREGVAWIARYDGSTLYADSVKGRFTISADNSKNTAYLQMNSLKPEDTAVYYCAKDLDSSGRFFQHWGQGTLVTVSS
notes: VHH-Fc fusion in assay
B22: TIGIT-SC48 (Fc fusion)
VHH: EVQLVESGGGLVQPGGSLRLSCAASGRTSDIYGMGWFRQAPGKEREAVASIWRSGGNTYYADSVKGRFTISADNSKNTAYLQMNSLKPEDTAVYYCASSTLDVWGQGTLVTVSS
notes: VHH-Fc fusion in assay
B23: TIGIT-SC19 (Fc fusion)
VHH: EVQLVESGGGLVQPGGSLRLSCAASGRTYDAMGWFRQAPGKEREWVASVLRGGYTWYADSVKGRFTISADNSKNTAYLQMNSLKPEDTAVYYCARDVDYRFDSWGQGTLVTVSS
notes: VHH-Fc fusion in assay

Biological target: T1, recombinant human TIGIT
Assay: SPR Carterra, average
Method: Binding affinities of VHH-Fc proteins to recombinant human TIGIT were measured by SPR using a Carterra instrument (Table 10A). […] Average values reported from measurements from 1-2 samples.

Binder	Kd	koff	kon
B1	≤ 5.13 pM	≤ 1e-05 s⁻¹	1.95e+06 M⁻¹ s⁻¹
B2	≤ 5.02 pM	≤ 1e-05 s⁻¹	4.71e+06 M⁻¹ s⁻¹
B3	2070 pM	0.000837 s⁻¹	1.17e+06 M⁻¹ s⁻¹
B4	≤ 10.5 pM	≤ 1e-05 s⁻¹	1.31e+06 M⁻¹ s⁻¹
B5	≤ 11.8 pM	≤ 1e-05 s⁻¹	860000 M⁻¹ s⁻¹
B6	≤ 42.3 pM	≤ 1e-05 s⁻¹	342000 M⁻¹ s⁻¹
B7	≤ 156 pM	≤ 1e-05 s⁻¹	64300 M⁻¹ s⁻¹
B8	≤ 204 pM	≤ 1e-05 s⁻¹	48900 M⁻¹ s⁻¹
B9	≤ 222 pM	≤ 1e-05 s⁻¹	45000 M⁻¹ s⁻¹
B10	8900 pM	0.00181 s⁻¹	203000 M⁻¹ s⁻¹
B11	328 pM	0.0002 s⁻¹	566000 M⁻¹ s⁻¹
B12	7570 pM	0.000578 s⁻¹	86600 M⁻¹ s⁻¹
B13	59200 pM	0.0037 s⁻¹	63000 M⁻¹ s⁻¹
B14	14400 pM	0.00124 s⁻¹	101000 M⁻¹ s⁻¹
B15	9350 pM	0.00156 s⁻¹	168000 M⁻¹ s⁻¹
B16	447 pM	0.000231 s⁻¹	942000 M⁻¹ s⁻¹
B17	2550 pM	0.00352 s⁻¹	1.38e+06 M⁻¹ s⁻¹
B18	467 pM	0.000165 s⁻¹	246000 M⁻¹ s⁻¹
B19	2020 pM	0.000493 s⁻¹	244000 M⁻¹ s⁻¹
B20	505 pM	0.000237 s⁻¹	469000 M⁻¹ s⁻¹
B21	693 pM	0.000148 s⁻¹	213000 M⁻¹ s⁻¹
B22	713 pM	0.00551 s⁻¹	7.72e+06 M⁻¹ s⁻¹
B23	1070 pM	0.0012 s⁻¹	1.12e+06 M⁻¹ s⁻¹
